Tested on: fluorogenic peptide (MCA)Lys-Lys-Pro-Ala-Glu-Phe-Phe-Ala-Leu-Lys(DNP)

Sequence of native cardosin B (chain, as listed by the source): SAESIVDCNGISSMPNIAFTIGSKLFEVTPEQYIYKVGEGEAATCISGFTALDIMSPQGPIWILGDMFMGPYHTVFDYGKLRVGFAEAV

Work on native cardosin B yielded a Km of 1.4 µM, a VMax of 6.36e-06 µmol/s and a kcat of 24 s⁻¹. For the same substance, the kcat/Km was 17.1 µM⁻¹ s⁻¹.

From US20160083711
